B1: HSMCB (SEQ ID NO: 7, SEQ ID NO: 8): MCL-1/BIM heterodimer antibody, CDRs SEQ ID NO: 1-6, variable heavy chain SEQ ID NO: 7, variable light chain SEQ ID NO: 8 (antibody, V domains shown)
VH: MNFGLSLIFLVLVLKGVQCEVQLVESGGDLVKPGGSLKLSCAVSGFTFSSYAMSWVRQTPAKRLEWVATISSGGFATYYPDTVKGRFTISRDNAKNTLYLQMSSLRSEDTAMYYCARHGGGSYGWFAYWGQGTLVTVSE
VL: MLSLAPLLSLLLLCVSDSRAETTVTQSPASLSVATGEKVTIRCITSTDIDDDMNWYQQKPGEPPKLLISEGNTLRPGVPSRFSSSGYGTDFVFTIENTLSEDFADYYCLQSDNMPYTFGGGTKLEIK
B2: HSMCB (SEQ ID NO: 15, SEQ ID NO: 16): MCL-1/BIM heterodimer antibody, CDRs SEQ ID NO: 9-14, variable heavy chain SEQ ID NO: 15, variable light chain SEQ ID NO: 16 (antibody, V domains shown)
VH: MDWIWIMLHLLAAATGLQSQVHLQQSGSELRSPGSSVKLSCKDFDSEVFPIAYMSWVRQKPGHGFEWIGDILPSIGRTIYGEKFEDKATLDADTVSNTAYLELNSLTSEDSAIYYCARQDTYYAMDYWGQGTSVTVSS
VL: MHFQVQIFSFLLISASVIMSRGQIVLTQSPAIMSASPGEKVTITCSASSSVSYMHWVQQKPGTSPKLWIYSTSNLASGVPARFRGSGSGTSYSLTISRMEAEDAATYYCQQRSSYPYTFGGGTKLEIK

Columns and labels:
[1] = target: T1, covalent Mcl-1-Bim complex (Homo sapiens, UniProt Q07820); test: Flow cytometry detection of covalent Mcl-1-Bim complex immobilized on GSH beads; assay type: binding; conditions: directly labeled and secondary antibody detection, FIG. 12
T1 construct: mutated to delete their transmembrane domains; made in house; host or cells: E. coli BL21 (D3) for the Mcl-1 fusion; peptide UV-crosslinked to it
T1 sequence (Q07820 1-327): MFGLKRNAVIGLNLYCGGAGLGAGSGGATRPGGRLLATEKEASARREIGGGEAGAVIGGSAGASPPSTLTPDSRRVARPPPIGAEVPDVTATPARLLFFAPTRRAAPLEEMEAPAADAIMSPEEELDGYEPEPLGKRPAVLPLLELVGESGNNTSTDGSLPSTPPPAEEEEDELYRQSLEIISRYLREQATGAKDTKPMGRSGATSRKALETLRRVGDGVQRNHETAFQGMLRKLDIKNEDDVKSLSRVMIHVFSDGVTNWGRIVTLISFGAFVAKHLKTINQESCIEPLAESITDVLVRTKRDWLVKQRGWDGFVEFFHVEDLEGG
T1 sequence (O43521 146-166 partner): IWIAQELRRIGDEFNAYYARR
Description: In the experiments on the left side of the graph for HSMCB (i.e., the first two columns from the left on the graph), the HSMCB antibody is an antibody having CDRs selected from SEQ ID NO: 1, SEQ ID NO: 2, SEQ ID NO: 3, SEQ ID NO: 4, SEQ ID NO: 5, SEQ ID NO: 6, and having a variable heavy chain selected from SEQ ID NO: 7, and a variable light chain selected from SEQ ID NO: 8. In the next experiment near the middle of the graph for HSMCB (i.e., the second set of two columns in the middle on the graph), the antibody is an antibody having CDRs selected from SEQ ID NO: 9, SEQ ID NO: 10, SEQ ID NO: 11, SEQ ID NO: 12, SEQ ID NO: 13, SEQ ID NO: 14, and having a variable heavy chain selected from SEQ ID NO: 15, and a variable light chain selected from SEQ ID NO: 16. The antibody reactive with BcL-XL-Bim is used as a negative control, and Mcl1 (which recognizes both Mcl-1 monomer and Mcl-1-Bim complex) is used as a positive control. The signals using a directly labeled primary antibody (i.e., the first column in each set of two columns throughout the graph) and a secondary antibody detection system (i.e., the second column in each set of two columns throughout the graph) are shown.
AML patient samples were BH3 profiled in the experiments of this example. […] Patient samples were fixed, permeabilized, stained with HSMCB and anti-Mcl-1 antibody, and measured by flow cytometry. […]

Mcl-1 Bim-BH3 complex = target: T2, Mcl-1 Bim-BH3 complex (Homo sapiens, UniProt Q07820); test: HSMCB on Mcl-1-Bim non-covalently bound beads; assay type: binding; conditions: Bim-BH3 10 uM to 50 uM, FIG. 14
T2 construct: mutated to delete their transmembrane domains; made in house; host or cells: E. coli BL21 (D3)
T2 sequence (Q07820 1-327 limits assumed): as the sequence (Q07820 1-327) above

[2] = test system: FFPE breast cancer patient biopsy (BCa_01 NV401); test: IHC staining of serial sections from a FFPE breast cancer patient biopsy; parameters: species or system human; conditions: compared with HSBXB, 10× objective, FIG. 8
Description: The image on the left side of FIG. 8 is of an HSMCB antibody having CDRs selected from SEQ ID NO: 9, SEQ ID NO: 10, SEQ ID NO: 11, SEQ ID NO: 12, SEQ ID NO: 13, SEQ ID NO: 14, and having a variable heavy chain selected from SEQ ID NO: 15, and a variable light chain selected from SEQ ID NO: 16.
In these experiments, PDX stains were used for image analysis software from Leica and Halo were compared for quantitative analysis.

[3] = assay type: physicochemical
Protocol: FIG. 2 is a graph showing the selective binding of the MCL-1/BIM heterodimer (HSMCB) antibody to the MCL-1/BIM heterodimer, and the stability of this antibody at 4° C. for about 2 months. Each line in the graph follows the order in the legend (i.e., the top line is for sample 5-01-20b, the next line is for 5-22-20b, the next line is for 5-29b; this pattern is throughout the entire graph). The antibody in this figure is an antibody having CDRs selected from SEQ ID NO: 9, SEQ ID NO: 10, SEQ ID NO: 11, SEQ ID NO: 12, SEQ ID NO: 13, SEQ ID NO: 14, and having a variable heavy chain selected from SEQ ID NO: 15, and a variable light chain selected from SEQ ID NO: 16. […]

Molecule | Mcl-1-Bim bead detection [1] | recognition of Mcl-1 Bim-BH3 complex on beads (Mcl-1 Bim-BH3 complex) | IHC reactivity with tissue sample [2] | stability of the antibody at 4° C. [3]
B1 | demonstrated | recognize the Mcl-1 Bim-BH3 complex at a significant level | – | –
B2 | demonstrated | – | higher reactivity | about 2 months

From patent US20240425583A1, “METHODS AND COMPOSITIONS RELATED TO MCL-1 AND BIM HETERODIMER ANTIBODIES” (priority 2021, published 2024)
